Test [1] deals with human neutrophil elastase (immobilized on Reacti-Gel agarose beads, or free) (human) (UniProt P08246). The test can be described thus: pH elution of phage from HNE beads.
The target in test [2] is trypsin (active, immobilized on beads, or in solution) (UniProt P00760). Put plainly: trypsin beads.
The target is the same in test [3]. The test can be described thus: trypsin beads. The source holds these as a separate data set.
The target of test [4] is human neutrophil elastase (immobilized on Reacti-Gel agarose beads, or free) (human) (UniProt P08246). The test can be described thus: HNE beads, pH 4.0 wash.
The target is the same in test [5]. The test can be described thus: HNE beads, pH 7.0 wash.
Test [6] shares this target. Put plainly: HNE beads, pH 2.2 elution.
Test [7] has the same target. Put plainly: acid-eluted from HNE beads.
Test [8] has the same target. The test can be described thus: HNE beads, sum of pH washes.
Test [9] addresses trypsin (active, immobilized on beads, or in solution) (UniProt P00760). Put plainly: acid-eluted from trypsin beads.
Test [10] deals with anhydro-trypsin (agarose-immobilized) (UniProt P00760). Put plainly: anhydrotrypsin beads, experiment 2.
The target is the same in test [11]. The test can be described thus: 2 µl immobilized anhydro-trypsin, dot blot.
Test [12] has the same target. The test can be described thus: 5 µl immobilized anhydro-trypsin, dot blot.
For test [13] the target is unchanged. The test can be described thus: 10 µl immobilized anhydro-trypsin, dot blot.
Test [14] has the same target. Put plainly: 5 µl immobilized anhydro-trypsin slurry, 2 h.
For test [15] the target is unchanged. The test can be described thus: 10 µl immobilized anhydro-trypsin slurry, 1 h.
For test [16] the target is unchanged. Put plainly: 10 µl immobilized anhydro-trypsin slurry, 2 h.
Test [17] addresses human neutrophil elastase (immobilized on Reacti-Gel agarose beads, or free) (human) (UniProt P08246). Put plainly: HNE beads.
The target in test [18] is anhydro-trypsin (agarose-immobilized) (UniProt P00760). The test can be described thus: anhydrotrypsin beads.
Test [19] concerns the target trypsin (active, immobilized on beads, or in solution) (UniProt P00760). Put plainly: eluted from trypsin beads.
Test [20] deals with anhydro-trypsin (agarose-immobilized) (UniProt P00760). The test can be described thus: eluted from anhydrotrypsin beads.
For test [21], the target named is streptavidin (agarose-immobilized) (UniProt P22629). Put plainly: titer after streptavidin beads.
Sequence of streptavidin (agarose-immobilized) (P22629 37-163 limits assumed): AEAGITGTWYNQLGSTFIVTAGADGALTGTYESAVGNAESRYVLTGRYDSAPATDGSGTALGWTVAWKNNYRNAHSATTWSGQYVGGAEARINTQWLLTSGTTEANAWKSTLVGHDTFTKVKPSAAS
In test [22] the target is anhydro-trypsin (agarose-immobilized) (UniProt P00760). Put plainly: titer after anhydrotrypsin beads.
For test [23] the target is unchanged. The test can be described thus: anhydrotrypsin beads, experiment 1.
The target of test [24] is protein A (agarose beads) (UniProt P38507). Put plainly: titer after protein A beads alone; batch 5.
Test [25] addresses anhydro-trypsin (agarose-immobilized) (UniProt P00760). The test can be described thus: acid-eluted from anhydrotrypsin beads, experiment 1.
Test [26] addresses human Cathepsin G (immobilized on agarose beads) (human) (UniProt P08311). Put plainly: Cat-G beads, pH 2.0 eluate.
Test [27] has the same target. Put plainly: Cat-G beads, pH 2.5 eluate.
For test [28] the target is unchanged. Put plainly: Cat-G beads, pH 3.0 eluate.
For test [29] the target is unchanged. Put plainly: Cat-G beads, pH 3.5 eluate.
For test [30] the target is unchanged. The test can be described thus: Cat-G beads, pH 4.0 eluate.
Test [31] shares this target. The test can be described thus: Cat-G beads, pH 4.5 eluate.
For test [32] the target is unchanged. Put plainly: Cat-G beads, pH 5.0 eluate.
Test [33] has the same target. Put plainly: Cat-G beads, pH 5.5 eluate.
Test [34] has the same target. The test can be described thus: Cat-G beads, pH 6.0 eluate.
The target is the same in test [35]. The test can be described thus: Cat-G beads, pH 7.0 eluate.
The target is the same in test [36]. The test can be described thus: Cat-G beads, all pH eluates.
The target is the same in test [37]. Put plainly: Cat-G beads, final TBS-TWEEN wash.
The target in test [38] is streptavidin (agarose-immobilized) (UniProt P22629). The test can be described thus: 5 µl immobilized streptavidin slurry, 1 h.
Test [39] has the same target. Put plainly: 5 µl immobilized streptavidin slurry, 2 h.
For test [40] the target is unchanged. Put plainly: 5 µl immobilized streptavidin slurry, 4 h.
Test [41] concerns the target trypsin (active, immobilized on beads, or in solution) (UniProt P00760). Put plainly: trypsin beads, CBS pH 6.5, pH 2.2 elution.
For test [42] the target is unchanged. The test can be described thus: trypsin beads, TBS pH 7.5, pH 2.2 elution.
Test [43] addresses anhydro-trypsin (agarose-immobilized) (UniProt P00760). The test can be described thus: 2 µl immobilized anhydro-trypsin slurry, 1 h.
The target is the same in test [44]. The test can be described thus: 2 µl immobilized anhydro-trypsin slurry, 2 h.
Test [45] shares this target. The test can be described thus: 2 µl immobilized anhydro-trypsin slurry, 4 h.
Test [46] shares this target. The test can be described thus: 5 µl immobilized anhydro-trypsin slurry, 1 h.
The target is the same in test [47]. Put plainly: 5 µl immobilized anhydro-trypsin slurry, 4 h.
Test [48] shares this target. Put plainly: 10 µl immobilized anhydro-trypsin slurry, 4 h.
In test [49] the target is M13mp18 phage (wild type, non-display phage). The test can be described thus: titer after normal rabbit IgG.
The target in test [50] is M13MB48 phage (BPTI fused to the mature M13 gene VIII major coat protein) (Bos taurus / phage M13). Put plainly: titer after normal rabbit IgG; batch 4.
Test [51] has the same target. Put plainly: titer after normal rabbit IgG; batch 5.
The target of test [52] is M13mp18 phage (wild type, non-display phage). The test can be described thus: titer after normal rabbit IgG + protein A beads.
In test [53] the target is M13MB48 phage (BPTI fused to the mature M13 gene VIII major coat protein) (Bos taurus / phage M13). The test can be described thus: titer after normal rabbit IgG + protein A beads; batch 4.
Test [54] shares this target. The test can be described thus: titer after normal rabbit IgG + protein A beads; batch 5.

Data on eight substances can be found in US7118879.

Read-outs that look alike come from different tables or passages of the source.

Sequence of human Cathepsin G (immobilized on agarose beads) (human) (P08311 21-244 limits assumed): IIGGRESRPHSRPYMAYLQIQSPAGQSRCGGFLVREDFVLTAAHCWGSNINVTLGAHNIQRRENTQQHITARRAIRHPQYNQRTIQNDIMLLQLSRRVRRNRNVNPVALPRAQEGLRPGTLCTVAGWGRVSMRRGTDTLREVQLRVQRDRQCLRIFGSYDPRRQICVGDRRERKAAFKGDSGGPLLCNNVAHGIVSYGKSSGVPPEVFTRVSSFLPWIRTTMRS
Sequence of trypsin (active, immobilized on beads, or in solution) (P00760 24-246): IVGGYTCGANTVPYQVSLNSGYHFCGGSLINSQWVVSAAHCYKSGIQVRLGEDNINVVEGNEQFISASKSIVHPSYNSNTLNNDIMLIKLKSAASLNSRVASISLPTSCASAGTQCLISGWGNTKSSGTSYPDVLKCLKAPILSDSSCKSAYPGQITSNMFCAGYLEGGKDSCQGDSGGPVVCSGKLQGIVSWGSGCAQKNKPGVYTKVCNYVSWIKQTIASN
Sequence of human neutrophil elastase (immobilized on Reacti-Gel agarose beads, or free) (human) (P08246 30-247 limits assumed): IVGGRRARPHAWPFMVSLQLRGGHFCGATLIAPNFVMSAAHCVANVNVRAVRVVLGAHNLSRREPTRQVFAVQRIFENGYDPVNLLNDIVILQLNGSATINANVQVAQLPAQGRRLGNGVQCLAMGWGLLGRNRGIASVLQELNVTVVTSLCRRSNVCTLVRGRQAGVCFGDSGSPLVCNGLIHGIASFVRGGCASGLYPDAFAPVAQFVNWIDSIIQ

As to “BPTI(K15V,R17L)-III MA phage (designed binder)”, the pH of elution peak in [1] came to 4.25 pH.

Consider “BPTI-III MK phage (M13 phage displaying mature BPTI fused to the gene III protein)”, for which the relative binding (to M13MP18) is 5000 fold in test [2] and 2000 fold in test [3]. For the same substance, the values for the % of input phage in [4] and in test [5] were 0.001% and 0.002%, respectively. Also, the total pfu in fraction stood at 30000 pfu in test [4] and 50000 pfu in test [5]. In addition, the % of input phage recovered in test [6] was 0.005%. The results for the eluted phage, % of input in test [7] and in [9] were 0.005% and 1%, respectively. The substance also came in with a percentage of input phage recovered (all fractions) in [8] of 0.008%. In addition, the binding relative to M13mp18 in test [10] was found to be 40 fold. Besides, the percent of total phage recovered in elution buffer is 5% in test [11], 20% in test [12] and 50% in test [13]. For the same substance, the percent residual titer was determined as 40% in test [14], 40% in [15] and 30% in [16].

In [7], “M13.3X7 phage (BPTI:VIII fusion with one EGGGS linker)” showed an eluted phage, % of input of 0.001%.

For the substance “M13.3X11 phage (BPTI:VIII fusion with three linker units)”, the relative binding (to M13MP18) in test [17] was determined as 6.7 fold; in test [2], 1200 fold; in test [3], 1600 fold; in test [18], 92 fold. Further, the eluted phage, % of input in test [19] came out at 0.27%; in test [7], 0.002%; in test [9] it was 0.8%; in [20] it was 9.2%.

As to “M13MB48 phage (BPTI fused to the mature M13 gene VIII major coat protein)”, the relative binding (to M13MP18) worked out at 30 fold in test [17] and 260 fold in test [3]. For the same substance, the eluted phage, % of input in test [7] turned out to be 0.009%; in test [9], 0.13%; in test [25], 11.2%. Also, the % of input pfu post incubation in test [21] turned out to be 98%; in test [22], 58%. This substance displayed a binding relative to M13MP18 in test [23] of 56 fold. This substance also yielded a % of input pfu in test [24] of 58%.

With “MA-ITI phage (M13 phage displaying human ITI domain I fused to the gene III protein) (from UniProt P02760 227-281)”, the fraction of input in [26] turned out to be 7e-07; in test [27] it was 5.9e-07; in test [28], 7.8e-07; in test [29], 9.6e-07; in test [30], 9.6e-07; in test [31] it was 1.5e-06. For the same substance, the fraction of input in test [32] was 2.4e-06; in [33], 2.6e-06; in [34], 5e-06; in test [35], 1.3e-05; in test [37], 1.5e-05. In test [36], this substance registered a fraction of input, SUM of pH elution fractions of 3e-05. The substance further showed a total pfu, SUM of pH elution fractions in test [36] of 1.4e+07 pfu. Further, the total pfu in sample in test [37] was determined as 7.1e+06 pfu.

As for “MK phage (M13-MB1/2-delta-NarI with kanamycin-resistance gene; no displayed domain)”, the percent residual titer in test [38] was 106%; in test [39] it was 96%; in [40], 98%; in [43] it was 97%; in [44], 103%; in test [45], 95%. Besides, the percent residual titer in [46] was 110%; in test [14] it was 111%; in [47] it was 96%; in test [15], 99%; in test [16], 93%; in test [48], 106%. Besides, the figures for the % of input phage recovered in test [41] and in test [42] were 0.00028% and 0.00034%, respectively. Further, the total pfu recovered in elution buffer was 1.35e+06 pfu in test [41] and 1.48e+06 pfu in test [42].

Turning to “normal rabbit serum / IgG purified from normal rabbit pre-immune serum (antibody)”, the % of input pfu amounted to 104% in [49]; 125% in test [50]; 105% in [51]; 88% in [52]; 121% in test [53]; 110% in [54].
